Measured values: patent publication US20230250154A1 (CYTONICS, published 2023)

T1: ADAMTS5 (human, UniProt Q9UNA0 262-622, limits assumed)
T1 sequence (looked up): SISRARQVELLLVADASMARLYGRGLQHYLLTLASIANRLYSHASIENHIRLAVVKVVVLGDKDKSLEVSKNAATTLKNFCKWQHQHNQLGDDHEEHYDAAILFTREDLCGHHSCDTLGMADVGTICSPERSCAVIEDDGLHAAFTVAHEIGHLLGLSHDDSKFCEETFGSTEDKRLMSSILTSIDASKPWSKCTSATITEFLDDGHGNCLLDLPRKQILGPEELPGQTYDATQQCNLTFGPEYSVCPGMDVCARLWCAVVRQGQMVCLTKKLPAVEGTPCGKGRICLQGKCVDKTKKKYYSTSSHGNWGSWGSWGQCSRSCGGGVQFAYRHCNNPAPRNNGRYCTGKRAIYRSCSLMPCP

T2: MMP2 (human, UniProt P08253 110-660, limits assumed)
T2 sequence (looked up): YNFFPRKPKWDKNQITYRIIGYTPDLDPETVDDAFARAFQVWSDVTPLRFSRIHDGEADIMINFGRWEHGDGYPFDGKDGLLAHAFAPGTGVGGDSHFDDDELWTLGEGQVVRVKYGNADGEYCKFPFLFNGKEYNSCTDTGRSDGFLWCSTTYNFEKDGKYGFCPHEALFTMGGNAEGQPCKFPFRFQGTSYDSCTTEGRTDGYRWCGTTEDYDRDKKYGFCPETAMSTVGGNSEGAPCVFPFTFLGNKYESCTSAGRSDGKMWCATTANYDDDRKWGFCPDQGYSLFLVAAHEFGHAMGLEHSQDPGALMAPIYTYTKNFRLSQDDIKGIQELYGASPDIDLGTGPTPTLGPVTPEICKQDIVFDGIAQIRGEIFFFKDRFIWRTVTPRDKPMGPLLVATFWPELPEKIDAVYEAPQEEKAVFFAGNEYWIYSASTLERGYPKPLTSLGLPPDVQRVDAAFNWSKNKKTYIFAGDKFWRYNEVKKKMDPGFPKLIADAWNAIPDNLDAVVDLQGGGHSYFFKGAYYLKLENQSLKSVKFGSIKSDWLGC

T3: ADAMTS4 (human, UniProt O75173 213-685, limits assumed)
T3 sequence (looked up): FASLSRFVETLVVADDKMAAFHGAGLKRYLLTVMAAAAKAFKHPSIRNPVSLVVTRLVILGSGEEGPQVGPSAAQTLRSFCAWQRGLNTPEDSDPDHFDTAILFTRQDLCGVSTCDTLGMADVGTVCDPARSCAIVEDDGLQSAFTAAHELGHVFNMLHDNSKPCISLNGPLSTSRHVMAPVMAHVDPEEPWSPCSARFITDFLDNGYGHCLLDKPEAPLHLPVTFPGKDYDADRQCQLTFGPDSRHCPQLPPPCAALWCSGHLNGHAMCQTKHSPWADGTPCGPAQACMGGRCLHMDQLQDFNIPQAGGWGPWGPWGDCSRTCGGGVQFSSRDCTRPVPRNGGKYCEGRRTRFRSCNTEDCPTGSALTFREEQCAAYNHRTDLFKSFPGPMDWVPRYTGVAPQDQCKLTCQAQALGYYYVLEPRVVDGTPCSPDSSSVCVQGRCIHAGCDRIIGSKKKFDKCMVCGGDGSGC

T4: MMP1 (human, UniProt P03956 100-469, limits assumed)
T4 sequence (looked up): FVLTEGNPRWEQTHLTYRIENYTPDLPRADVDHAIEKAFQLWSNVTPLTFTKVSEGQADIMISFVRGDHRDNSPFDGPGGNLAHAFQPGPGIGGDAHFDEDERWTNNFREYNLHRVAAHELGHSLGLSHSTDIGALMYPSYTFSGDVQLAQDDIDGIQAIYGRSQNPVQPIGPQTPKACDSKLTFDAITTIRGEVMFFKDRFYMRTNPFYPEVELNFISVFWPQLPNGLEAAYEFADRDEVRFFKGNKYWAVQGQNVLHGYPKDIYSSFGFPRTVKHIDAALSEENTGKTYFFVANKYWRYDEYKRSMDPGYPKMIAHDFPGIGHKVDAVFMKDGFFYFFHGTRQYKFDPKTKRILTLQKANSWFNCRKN

T5: Cathepsin G (UniProt P08311 21-244)
T5 sequence (looked up): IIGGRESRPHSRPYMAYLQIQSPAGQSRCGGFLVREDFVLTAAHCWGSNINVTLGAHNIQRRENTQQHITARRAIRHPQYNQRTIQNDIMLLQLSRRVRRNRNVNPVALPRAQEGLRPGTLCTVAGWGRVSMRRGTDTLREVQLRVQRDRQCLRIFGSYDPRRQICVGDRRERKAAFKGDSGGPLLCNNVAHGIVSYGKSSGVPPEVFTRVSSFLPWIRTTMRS

B1: Variant A2M, bait region SEQ ID NO 96 (other)
chain: SVSGKPQYMVLVPSLLHTETTEKGCVLLSYLNETVTVSASLESVRGNRSLFTDLEAENDVLHCVAFAVPKSSSNEEVMFLTVQVKGPTQEFKKRTTVMVKNEDSLVFVQTDKSIYKPGQTVKFRVVSMDENFHPLNELIPLVYIQDPKGNRIAQWQSFQLEGGLKQFSFPLSSEPFQGSYKVVVQKKSGGRTEHPFTVEEFVLPKFEVQVTVPKIITILEEEMNVSVCGLYTYGKPVPGHVTVSICRKYSDASDCHGEDSQAFCEKFSGQLNSHGCFYQQVKTKVFQLKRKEYEMKLHTEAQIQEEGTVVELTGRQSSEITRTITKLSFVKVDSHFRQGIPFFGQVRLVDGKGVPIPNKVIFIRGNEANYYSNATTDEHGLVQFSINTTNVMGTSLTVRVNYKDRSPCYGYQWVSEEHEEAHHTAYLVFSPSKSFVHLEPMSHELPCGHTQTVQAHYILNGGTLLGLKKLSFYYLIMAKGGIVRTGTHGLLVKQEDMKGHFSISIPVKSDIAPVARLLIYAVLPTGDVIGDSAKYDVENCLANKVDLSFSPSQSLPASHAHLRVTAAPQSVCALRAVDQSVLLMKPDAELSASSVYNLLPEKDLTGFPGPLNDQDDEDCINRHNVYINGITYTPVSSTNEKDMYSFLEDMGLKAFTNSKIRKPKMCPQLEQYEMHGPEGLRVGEGEGEGEGFYESDVMGRGHARLVHVEEPHTKLLRKYFPETWIWDLVVVNSAGVAEVGVTVPDTITEWKAGAFCLSEDAGLGISSTASLRAFQPFFVELTMPYSVIRGEAFTLKATVLNYLPKCIRVSVQLEASPAFLAVPVEKEQAPHCICANGRQTVSWAVTPKSLGNVNFTVSAEALESQELCGTEVPSVPEHGRKDTVIKPLLVEPEGLEKETTFNSLLCPSGGEVSEELSLKLPPNVVEESARASVSVLGDILGSAMQNTQNLLQMPYGCGEQNMVLFAPNIYVLDYLNETQQLTPEIKSKAIGYLNTGYQRQLNYKHYDGSYSTFGERYGRNQGNTWLTAFVLKTFAQARAYIFIDEAHITQALIWLSQRQKDNGCFRSSGSLLNNAIKGGVEDEVTLSAYITIALLEIPLTVTHPVVRNALFCLESAWKTAQEGDHGSHVYTKALLAYAFALAGNQDKRKEVLKSLNEEAVKKDNSVHWERPQKPKAPVGHFYEPQAPSAEVEMTSYVLLAYLTAQPAPTSEDLTSATNIVKWITKQQNAQGGFSSTQDTVVALHALSKYGAATFTRTGKAAQVTIQSSGTFSSKFQVDNNNRLLLQQVSLPELPGEYSMKVTGEGCVYLQTSLKYNILPEKEEFPFALGVQTLPQTCDEPKAHTSFQISLSVSYTGSRSASNMAIVDVKMVSGFIPLKPTVKMLERSNHVSRTEVSSNHVLIYLDKVSNQTLSLFFTVLQDVPVRDLKPAIVKVYDYYETDEFAIAEYNAPCSKDLGNADYKDDDDKGASHHHHHH
B2: Variant A2M, bait region SEQ ID NO 125 (other)
chain: SVSGKPQYMVLVPSLLHTETTEKGCVLLSYLNETVTVSASLESVRGNRSLFTDLEAENDVLHCVAFAVPKSSSNEEVMFLTVQVKGPTQEFKKRTTVMVKNEDSLVFVQTDKSIYKPGQTVKFRVVSMDENFHPLNELIPLVYIQDPKGNRIAQWQSFQLEGGLKQFSFPLSSEPFQGSYKVVVQKKSGGRTEHPFTVEEFVLPKFEVQVTVPKIITILEEEMNVSVCGLYTYGKPVPGHVTVSICRKYSDASDCHGEDSQAFCEKFSGQLNSHGCFYQQVKTKVFQLKRKEYEMKLHTEAQIQEEGTVVELTGRQSSEITRTITKLSFVKVDSHFRQGIPFFGQVRLVDGKGVPIPNKVIFIRGNEANYYSNATTDEHGLVQFSINTTNVMGTSLTVRVNYKDRSPCYGYQWVSEEHEEAHHTAYLVFSPSKSFVHLEPMSHELPCGHTQTVQAHYILNGGTLLGLKKLSFYYLIMAKGGIVRTGTHGLLVKQEDMKGHFSISIPVKSDIAPVARLLIYAVLPTGDVIGDSAKYDVENCLANKVDLSFSPSQSLPASHAHLRVTAAPQSVCALRAVDQSVLLMKPDAELSASSVYNLLPEKDLTGFPGPLNDQDDEDCINRHNVYINGITYTPVSSTNEKDMYSFLEDMGLKAFTNSKIRKPKMCPQLEQYEMHGPSELEGRGSIPENFFGVEAIPMSIPTSEDLVVQIVEEPHTKLRKYFPETWIWDLVVVNSAGVAEVGVTVPDTITEWKAGAFCLSEDAGLGISSTASLRAFQPFFVELTMPYSVIRGEAFTLKATVLNYLPKCIRVSVQLEASPAFLAVPVEKEQAPHCICANGRQTVSWAVTPKSLGNVNFTVSAEALESQELCGTEVPSVPEHGRKDTVIKPLLVEPEGLEKETTFNSLLCPSGGEVSEELSLKLPPNVVEESARASVSVLGDILGSAMQNTQNLLQMPYGCGEQNMVLFAPNIYVLDYLNETQQLTPEIKSKAIGYLNTGYQRQLNYKHYDGSYSTFGERYGRNQGNTWLTAFVLKTFAQARAYIFIDEAHITQALIWLSQRQKDNGCFRSSGSLLNNAIKGGVEDEVTLSAYITIALLEIPLTVTHPVVRNALFCLESAWKTAQEGDHGSHVYTKALLAYAFALAGNQDKRKEVLKSLNEEAVKKDNSVHWERPQKPKAPVGHFYEPQAPSAEVEMTSYVLLAYLTAQPAPTSEDLTSATNIVKWITKQQNAQGGFSSTQDTVVALHALSKYGAATFTRTGKAAQVTIQSSGTFSSKFQVDNNNRLLLQQVSLPELPGEYSMKVTGEGCVYLQTSLKYNILPEKEEFPFALGVQTLPQTCDEPKAHTSFQISLSVSYTGSRSASNMAIVDVKMVSGFIPLKPTVKMLERSNHVSRTEVSSNHVLIYLDKVSNQTLSLFFTVLQDVPVRDLKPAIVKVYDYYETDEFAIAEYNAPCSKDLGNADYKDDDDKGASHHHHHH

Key:
Experiment in all cases: cell-based or functional assay
Elastase = target: Elastase
bovine trypsin = bovine trypsin (bovine, UniProt P00760 24-246)
Chain of bovine trypsin (P00760 24-246): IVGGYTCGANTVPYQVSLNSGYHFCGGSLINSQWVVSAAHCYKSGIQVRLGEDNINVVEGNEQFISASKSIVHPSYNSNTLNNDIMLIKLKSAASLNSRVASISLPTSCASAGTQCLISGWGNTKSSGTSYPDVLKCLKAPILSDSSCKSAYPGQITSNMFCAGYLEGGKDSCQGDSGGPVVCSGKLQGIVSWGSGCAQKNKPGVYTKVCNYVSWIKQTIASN

MMP9 = MMP9 (human, UniProt P14780 107-707, limits assumed)
Chain of MMP9 (P14780 107-707 limits assumed): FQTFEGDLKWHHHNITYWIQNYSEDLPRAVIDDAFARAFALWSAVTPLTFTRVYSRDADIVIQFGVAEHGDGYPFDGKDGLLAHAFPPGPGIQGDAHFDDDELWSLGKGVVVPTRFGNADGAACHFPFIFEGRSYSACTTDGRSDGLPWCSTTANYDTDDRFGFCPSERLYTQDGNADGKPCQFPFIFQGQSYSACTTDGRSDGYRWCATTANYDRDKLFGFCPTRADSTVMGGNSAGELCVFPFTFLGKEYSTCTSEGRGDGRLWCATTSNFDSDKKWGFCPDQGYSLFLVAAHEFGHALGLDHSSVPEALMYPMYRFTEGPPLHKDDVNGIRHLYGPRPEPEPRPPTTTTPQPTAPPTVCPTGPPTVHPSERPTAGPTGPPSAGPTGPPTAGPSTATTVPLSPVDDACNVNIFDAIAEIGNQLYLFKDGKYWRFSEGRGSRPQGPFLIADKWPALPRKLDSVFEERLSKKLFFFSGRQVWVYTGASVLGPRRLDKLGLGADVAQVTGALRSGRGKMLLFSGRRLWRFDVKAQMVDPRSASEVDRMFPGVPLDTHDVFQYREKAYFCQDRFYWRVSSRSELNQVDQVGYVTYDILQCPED

MMP12 = MMP12 (human, UniProt P39900 106-470, limits assumed)
Chain of MMP12 (P39900 106-470 limits assumed): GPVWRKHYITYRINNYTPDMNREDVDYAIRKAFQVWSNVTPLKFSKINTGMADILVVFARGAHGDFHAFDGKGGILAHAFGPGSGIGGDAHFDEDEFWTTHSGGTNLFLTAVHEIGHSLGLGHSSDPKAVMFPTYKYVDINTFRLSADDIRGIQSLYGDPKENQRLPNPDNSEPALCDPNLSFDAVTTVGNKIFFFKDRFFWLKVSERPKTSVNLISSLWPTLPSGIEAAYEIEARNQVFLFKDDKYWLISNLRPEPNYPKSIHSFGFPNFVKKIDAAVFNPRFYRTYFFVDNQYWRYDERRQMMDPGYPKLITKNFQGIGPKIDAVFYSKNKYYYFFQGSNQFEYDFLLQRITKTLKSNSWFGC

ADAMTS5 = target: T1, ADAMTS5
MMP2 = target: T2, MMP2
MMP3 = MMP3 (human, UniProt P08254 100-477, limits assumed)
Chain of MMP3 (P08254 100-477 limits assumed): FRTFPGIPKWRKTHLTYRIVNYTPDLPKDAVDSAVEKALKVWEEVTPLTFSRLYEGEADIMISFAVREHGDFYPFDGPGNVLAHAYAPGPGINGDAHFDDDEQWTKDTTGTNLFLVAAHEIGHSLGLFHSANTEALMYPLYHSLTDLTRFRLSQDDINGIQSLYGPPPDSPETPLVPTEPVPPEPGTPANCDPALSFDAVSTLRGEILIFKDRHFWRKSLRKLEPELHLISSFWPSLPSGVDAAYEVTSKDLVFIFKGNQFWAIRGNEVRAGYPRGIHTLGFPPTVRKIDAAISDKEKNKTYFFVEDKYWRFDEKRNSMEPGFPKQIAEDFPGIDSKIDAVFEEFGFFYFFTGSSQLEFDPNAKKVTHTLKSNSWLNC

ADAMTS4 = target: T3, ADAMTS4
MMP8 = MMP8 (human, UniProt P22894 101-467, limits assumed)
Chain of MMP8 (P22894 101-467 limits assumed): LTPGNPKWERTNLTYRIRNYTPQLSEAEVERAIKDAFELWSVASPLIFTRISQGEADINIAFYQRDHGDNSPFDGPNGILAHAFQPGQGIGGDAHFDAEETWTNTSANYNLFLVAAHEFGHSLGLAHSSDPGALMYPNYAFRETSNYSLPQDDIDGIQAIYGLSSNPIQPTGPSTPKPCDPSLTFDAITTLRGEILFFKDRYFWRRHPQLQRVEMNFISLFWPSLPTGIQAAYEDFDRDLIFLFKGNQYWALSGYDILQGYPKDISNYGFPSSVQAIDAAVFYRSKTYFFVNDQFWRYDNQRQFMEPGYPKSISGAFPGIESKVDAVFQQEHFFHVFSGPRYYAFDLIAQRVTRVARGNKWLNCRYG

MMP1 = target: T4, MMP1
MMP13 = MMP13 (human, UniProt P45452 104-471, limits assumed)
Cathepsin G = target: T5, Cathepsin G

Binder | Protease Inhibition (% of WT) (Elastase) | Protease Inhibition (% of WT) (bovine trypsin) | Protease Inhibition (% of WT) (MMP9) | Protease Inhibition (% of WT) (MMP12) | Protease Inhibition (% of WT) (ADAMTS5) | Protease Inhibition (% of WT) (MMP2) | Protease Inhibition (% of WT) (MMP3) | Protease Inhibition (% of WT) (ADAMTS4) | Protease Inhibition (% of WT) (MMP8) | Protease Inhibition (% of WT) (MMP1) | Protease Inhibition (% of WT) (MMP13) | Protease Inhibition (% of WT) (Cathepsin G)
B1 | 50 % of WT | 100 % of WT | 70 % of WT | 100 % of WT | 350 % of WT | 100 % of WT | 80 % of WT | 250 % of WT | 50 % of WT | 100 % of WT | 200 % of WT | 
B2 | 75 % of WT |  | 300 % of WT | 300 % of WT |  | 20 % of WT |  |  | 300 % of WT | 200 % of WT |  | 250 % of WT
